What all share (assay): ITC; Affinity-ITC calorimeter, 25°C; 20 mM Tris-HCl pH 7.5, 150 mM NaCl, 1 mM DTT; independent binding model
In general terms: In ITC the heat of successive injections is recorded.

Assay [1] deals with Rsp5 WW1-HECT domain (224-809) (S. cerevisiae) (UniProt P39940).
In assay [2] the target is Pub1 (287-767) (S. pombe) (UniProt Q92462).
Another assay addresses pub1-F576A (S. pombe) (UniProt Q92462).
Assay [3] has as its target Rsp5 HECT domain (444-809) (S. cerevisiae) (UniProt P39940).

For “Art1 PY motifs containing region (661-710) (domain or fragment)”, the dissociation constant Kd (commonly the free concentration of one partner at which half of the binding sites on the other are occupied at equilibrium, for simple one-to-one binding) in assay [1] is 3600 nM.

Regarding “Any1 conjugated with K63 di-Ub (from UniProt P0CG63 1-76; P0CG63 1-76) (complex)”, the fold enhancement of binding against non-conjugated Any1 in assay [2] is 8 fold. Moreover, the Kd with pub1-F576A (S. pombe) is 2300 nM.

For Any1 (17-361) (natural protein), the Kd in assay [2] was 2100 nM.

For “K63 di-Ub with a distal end ubiquitin mutant (I44A) (from UniProt P0CG63 1-76; P0CG63 1-76) (complex)”, in assay [3], the Kd amounted to 120000 nM.

The values are drawn from publication PMC9282857.
